Key:
male ob/ob mice = experiment: Ob/ob mouse model, blood glucose levels; assay type: in vivo; conditions: 1 hour post dose
Protocol: The Ob/ob mouse model is an animal model for hyperglycemia, insulin resistance and obesity. Male ob/ob mice are used to monitor plasma glucose levels and triglyceride levels after treatment with FGF-21, rosiglitazone, and FGF-21 in combination with rosiglitazone. The test groups of male ob/ob, mice (7 weeks old) are: FGF-21, 5 μg/day; rosiglitazone, 30 mg/kg/day; FGF-21, 3 ug/day, +rosiglitazone, 10 mg/kg/day; FGF-21, 5 ug/day, +rosiglitazone, 30 mg/kg/day; FGF-21, 5 ug/day, +rosiglitazone 10 mg/kg/day; s.c. vehicle control (0.9% NaCl, 0.1 ml/mouse); and, p.o. vehicle control (CMC/SLS/Povidone, 0.2 ml/mouse). FGF-21 is administered s.c. in 0.1 ml, and rosiglitazone is administered p.o. in 0.2 ml.
The animals are dosed daily for 14 days. Blood glucose levels are measured daily, 1 hour post dosing, using a standard protocol.

male db/db mice [1] = experiment: Db/db mouse model, blood glucose levels; assay type: in vivo; conditions: 1 hour post dose
Excerpt: (§1) The genetically diabetic C57BL/KsJ (db/db) mouse provides an animal model of type 2 diabetes, characterized by obesity, hyperglycemia and insulin resistance with hyperinsulinemia. (Sharma et al., Am J Physiol Renal Physiol. 284(6):F1138-b 44, (2003)).
(§2) In the present study, male db/db mice, 9 weeks of age are used. The animals are randomized by body weight and blood glucose levels into groups of six mice per group. Group 1: vehicle 1: CMC/SLS/Povidone, p.o. […] The animals are dose for 14 days.
Blood glucose is measured daily, 1 hour post dosing.

male db/db mice [2] = experiment: Db/db mouse model, plasma triglycerides; assay type: in vivo
Excerpt: as §1, §2
Plasma triglycerides are measured on days 7 and 14, 1 hour post dosing.

[3] = system: differentiated 3T3-L1 cells; experiment: Glucose uptake in mouse 3T3-L1 adipocytes (2-deoxy-D-[14C]glucose accumulation); assay type: cell-based; conditions: 72 hr. treatment
Protocol: 3T3-Li cells are obtained from the American Type Culture Collection (ATCC, Rockville, Md.). Cells are cultured in growth medium (GM) containing 10% calf serum in Dulbecco's modified Eagle's medium. For standard adipocyte differentiation, two days after cells reach confluency (referred as day 0), the cells are exposed to differentiation medium (DM) containing 10% fetal bovine serum, 5 μg/ml of insulin, 1 μM dexamethasone, and […] isobutylmethylxanthine, for 48 h and then are exposed to medium containing 10% fetal bovine serum, 5 μg/ml insulin for an additional 48 h. Cells are then maintained in post differentiation medium containing 10% fetal bovine serum.
Glucose Transport Assay—FGF-21 is added to the differentiated 3T3-L1 cells in 96 well plates at 0, 0.016, 0.08, 0.4, 2, 10, or 50.0 nM, and rosiglitazone is added to a final concentration of 1 μM, Table 1. For comparison, rosiglitazone alone is added at the concentrations indicated in Table 2 or in combination with FGF-21 at 1 μg/ml. The plates are incubated at 37° C. for 72 hours.
Hexose uptake, as assayed by the accumulation of 2-deoxy-D-[^14C]glucose, is measured as follows: 24 hours prior to the assay, the wells are rinsed twice with PBS and DMEM (high glucose, 1% antibiotic/antimycotic solution, 2 mM glutamine), 0.1% BSA plus FGF-21 is added. The plates are incubated at 37° C. for 72 hours. The cells are then washed twice with KRP buffer (136 mM NaCl, 4.7 mM KCl, 10 mM NaPO4, 0.9 mM CaCl2, 0.9 MM MgSO4, 0.1% BSA, pH 7.4), and then KRP buffer containing 1% BSA, 2-deoxy-D-glucose, 100 μM, 0.1 μCi/well 2-deoxy-D-[^14C]glucose is added and the plates are incubated at 37° C. for one hour. Cytochalasin B is added to stop further glucose uptake. Uptake is measured on a Microbeta plate reader.

Molecule: CN(CCOc1ccc(CC2SC(=O)NC2=O)cc1)c1ccccn1 (stereo not drawn) [Rosi., rosiglitazone, reference compound]
- Blood Glucose Levels in ob/ob mice (male ob/ob mice; Rosi. 30 mg/kg/day p.o., day 0): 225 mg/dL
- Blood Glucose Levels in ob/ob mice (male ob/ob mice; Rosi. 30 mg/kg/day p.o., day 2): 125 mg/dL
- Blood Glucose Levels in ob/ob mice (male ob/ob mice; Rosi. 30 mg/kg/day p.o., day 4): 150 mg/dL
- Blood Glucose Levels in ob/ob mice (male ob/ob mice; Rosi. 30 mg/kg/day p.o., day 6): 135 mg/dL
- Blood Glucose Levels in ob/ob mice (male ob/ob mice; Rosi. 30 mg/kg/day p.o., day 8): 115 mg/dL
- Blood Glucose Levels in ob/ob mice (male ob/ob mice; Rosi. 30 mg/kg/day p.o., day 10): 125 mg/dL
- Blood Glucose Levels in ob/ob mice (male ob/ob mice; Rosi. 30 mg/kg/day p.o., day 12): 120 mg/dL
- Blood Glucose Levels in ob/ob mice (male ob/ob mice; Rosi. 30 mg/kg/day p.o., day 14): 115 mg/dL
- Blood Glucose Levels in db/db mice (male db/db mice [1]; Rosi. 10 mg/kg/day p.o., day 0): 265 mg/dL
- Blood Glucose Levels in db/db mice (male db/db mice [1]; Rosi. 10 mg/kg/day p.o., day 2): 370 mg/dL
- Blood Glucose Levels in db/db mice (male db/db mice [1]; Rosi. 10 mg/kg/day p.o., day 4): 350 mg/dL
- Blood Glucose Levels in db/db mice (male db/db mice [1]; Rosi. 10 mg/kg/day p.o., day 6): 340 mg/dL
- Blood Glucose Levels in db/db mice (male db/db mice [1]; Rosi. 10 mg/kg/day p.o., day 8): 265 mg/dL
- Blood Glucose Levels in db/db mice (male db/db mice [1]; Rosi. 10 mg/kg/day p.o., day 10): 315 mg/dL
- Blood Glucose Levels in db/db mice (male db/db mice [1]; Rosi. 10 mg/kg/day p.o., day 12): 360 mg/dL
- Blood Glucose Levels in db/db mice (male db/db mice [1]; Rosi. 10 mg/kg/day p.o., day 14): 350 mg/dL
- Plasma Triglycerides (male db/db mice [2]; Rosi. 10 mg/kg/day, Day 7, 1 hour post dose): 135 mg/dL
- Plasma Triglycerides (male db/db mice [2]; Rosi. 10 mg/kg/day, Day 14, 1 hour post dose): 85 mg/dL

B1: FGF-21: mature human 181 amino acid FGF-21 polypeptide (SEQ ID NO:1), recombinantly expressed (protein)
chain: HPIPDSSPLLQFGGQVRQRYLYTDDAQQTEAHLEIREDGTVGGAADQSPESLLQLKALKPGVIQILGVKTSRFLCQRPDGALYGSLHFDPEACSFRELLLEDGYNVYQSEAHGLPLHLPGNKSPHRDPAPRGPARFLPLPGLPPALPEPPGILAPQPPDVGSSDPLSMVGPSQGRSPSYAS
modifications: homo sapiens
- 14C-Deoxyglucose (CPM) ([3]; FGF-21 alone 0.4 nM): 1300 CPM
- 14C-Deoxyglucose (CPM) ([3]; FGF-21 alone 2.0 nM): 2500 CPM
- 14C-Deoxyglucose (CPM) ([3]; FGF-21 alone 10.0 nM): 3100 CPM
- 14C-Deoxyglucose (CPM) ([3]; FGF-21 alone 50.0 nM): 3500 CPM
- 14C-Deoxyglucose (CPM) ([3]; FGF-21 alone .016 nM): 900 CPM
- 14C-Deoxyglucose (CPM) ([3]; FGF-21 alone .08 nM): 1000 CPM
- Blood Glucose Levels in ob/ob mice (male ob/ob mice; FGF-21 5 μg/day s.c., day 0): 225 mg/dL
- Blood Glucose Levels in ob/ob mice (male ob/ob mice; FGF-21 5 μg/day s.c., day 2): 175 mg/dL
- Blood Glucose Levels in ob/ob mice (male ob/ob mice; FGF-21 5 μg/day s.c., day 4): 150 mg/dL
- Blood Glucose Levels in ob/ob mice (male ob/ob mice; FGF-21 5 μg/day s.c., day 6): 140 mg/dL
- Blood Glucose Levels in ob/ob mice (male ob/ob mice; FGF-21 5 μg/day s.c., day 8): 140 mg/dL
- Blood Glucose Levels in ob/ob mice (male ob/ob mice; FGF-21 5 μg/day s.c., day 10): 160 mg/dL
- Blood Glucose Levels in ob/ob mice (male ob/ob mice; FGF-21 5 μg/day s.c., day 12): 180 mg/dL
- Blood Glucose Levels in ob/ob mice (male ob/ob mice; FGF-21 5 μg/day s.c., day 14): 225 mg/dL
- Blood Glucose Levels in db/db mice (male db/db mice [1]; FGF-21 3 μg/day s.c., day 0): 265 mg/dL
- Blood Glucose Levels in db/db mice (male db/db mice [1]; FGF-21 3 μg/day s.c., day 2): 270 mg/dL
- Blood Glucose Levels in db/db mice (male db/db mice [1]; FGF-21 3 μg/day s.c., day 4): 280 mg/dL
- Blood Glucose Levels in db/db mice (male db/db mice [1]; FGF-21 3 μg/day s.c., day 6): 300 mg/dL
- Blood Glucose Levels in db/db mice (male db/db mice [1]; FGF-21 3 μg/day s.c., day 8): 290 mg/dL
- Blood Glucose Levels in db/db mice (male db/db mice [1]; FGF-21 3 μg/day s.c., day 10): 325 mg/dL
- Blood Glucose Levels in db/db mice (male db/db mice [1]; FGF-21 3 μg/day s.c., day 12): 345 mg/dL
- Blood Glucose Levels in db/db mice (male db/db mice [1]; FGF-21 3 μg/day s.c., day 14): 345 mg/dL
- Plasma Triglycerides (male db/db mice [2]; FGF-21 3 ug/day, Day 7, 1 hour post dose): 165 mg/dL
- Plasma Triglycerides (male db/db mice [2]; FGF-21 3 ug/day, Day 14, 1 hour post dose): 120 mg/dL

— patent US20090111742A1, “Use of fgf-21 and thiazolidinedione for treating type 2 diabetes” (priority 2004, published 2009)
